Reference: US20200297842A1 (published 2020)

Columns and labels:
[1] = molecular target: T1, human SIRPγ expressed on cells (human, UniProt Q9P1W8 29-387); assay: flow cytometry on naive human CD3 T cells expressing SIRPγ (second column)
T1 construct: Endogenous SIRPγ on Jurkat T-ALL cells and on human CD3+ T cells; also called SIRPγ expressing Jurkat cells; Human T Cells Expressing SIRPγ
Description: (§1) Human CD3 T cells, isolated from peripheral blood mononuclear cells (Astarte Biologics) were incubated in 96-well V-bottom plates at 2.5 \ 10⁵ cells/well for 1 h at 37° C., 5% CO₂ with serial dilutions of SIRP mAbs in binding buffer containing 1 mM EDTA (Sigma Aldrich), 1% FBS (Biowest) in PBS (Corning). The cells were then washed and stained for 45 min under the same conditions with donkey anti-mouse IgG fluorescein isothiocyanate (FITC)-linked secondary antibody (Jackson ImmunoResearch Laboratories). The cells were subsequently stained with anti-CD3 conjugated to 3-carboxy-6,8-difluoro-7-hydroxycoumarin (Pacific Blue) fluorophore (BioLegend) for 30 min on ice, washed and analyzed by flow cytometry (Attune, Life Technologies). Binding was assessed as the median FITC fluorescence intensity of CD3⁺ cells, subtracted from CD3⁺ cells stained with the secondary antibody only. All SIRP antibodies were generated in-house except for LSB2.20 (BioLegend). For activated T cells, prior to the binding assay CD3 T cells were activated for 72 h in a 96-well flat-bottom plate coated with 10 μg/ml anti-CD3 (clone UCHT1; BioLegend), at 1×10⁵ cells/well in the presence of 0.5 μg/ml anti-CD28 (clone CD28.2; BioLegend).

[2] = molecular target: T1, human SIRPγ expressed on cells; assay: flow cytometry on activated human CD3 T cells expressing SIRPγ
Description: as §1

[3] = molecular target: T1, human SIRPγ expressed on cells; assay: flow cytometry on naive human CD3 T cells expressing SIRPγ
Description: as §1

[4] = molecular target: T2, human SIRPα expressed on cells (human, UniProt P78324 31-504); assay: flow cytometry on human monocyte-derived macrophages; apparent Kd
T2 construct: whole, on cells; Endogenous SIRPα of THP-1 cells and of donor-derived macrophages and dendritic cells; also called SIRPα expressing THP-1 cells; cell-expressed SIRPα on dendritic cells and/or macrophages
T2 sequence (P78324 31-504): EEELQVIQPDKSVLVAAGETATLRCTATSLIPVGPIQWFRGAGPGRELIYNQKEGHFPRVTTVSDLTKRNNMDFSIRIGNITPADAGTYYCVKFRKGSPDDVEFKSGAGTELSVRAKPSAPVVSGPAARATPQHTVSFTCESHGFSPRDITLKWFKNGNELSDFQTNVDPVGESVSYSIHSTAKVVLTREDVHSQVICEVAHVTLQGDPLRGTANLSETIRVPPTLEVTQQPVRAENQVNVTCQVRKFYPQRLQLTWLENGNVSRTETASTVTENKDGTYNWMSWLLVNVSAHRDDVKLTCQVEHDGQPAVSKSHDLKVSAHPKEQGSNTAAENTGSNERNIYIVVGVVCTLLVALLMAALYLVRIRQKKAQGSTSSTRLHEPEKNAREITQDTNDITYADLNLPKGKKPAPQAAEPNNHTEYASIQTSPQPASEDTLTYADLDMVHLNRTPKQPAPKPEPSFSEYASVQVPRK
Description: (§2) Human CD14⁺ monocytes, isolated from peripheral blood mononuclear cells (Astarte Biologics) were differentiated in vitro for seven days into macrophages or dendritic cells. For macrophage differentiation, monocytes were incubated in AIM-V media (Life Technologies) supplemented with 50 ng/ml M-CSF (Biolegend) for seven days. For dendritic cell differentiation, monocytes were incubated in AIM-V media (Life Technologies) in the presence of 10% human AB serum (Valley Biomedical), 200 ng/ml GM-CSF (Biolegend) and 50 ng/ml IL-4 (Biolegend). The cells were incubated for 1 h at 37° C., 5% CO₂ with serial dilutions of SIRP mAbs in binding buffer containing 1 mM EDTA (Sigma Aldrich) and 1% FBS (Biowest) in PBS (Corning). The cells were then washed and stained for 45 min under the same conditions with donkey anti-mouse IgG fluorescein isothiocyanate (FITC)-linked secondary antibody (Jackson ImmunoResearch Laboratories). The cells were subsequently stained with anti-CD14 or anti-CD11c conjugated to Alexa Fluor 647 fluorophore (Life Technologies and Biolegend, respectively) for 30 min on ice, washed and analyzed by flow cytometry (Attune, Life Technologies). Binding was assessed as the median FITC fluorescence intensity of CD14⁺ or CD11c⁺ cells, subtracted from cells stained with the secondary antibody only.

[5] = molecular target: T3, Fc tagged human SIRPα (ACRO # SIG-H5251, genotype variant 1) (human, UniProt P78324 31-370, limits assumed); assay: ELISA, plate-coated Fc tagged human SIRPα; apparent Kd
T3 construct: Bought protein; also called Fc tagged human SIRP alpha; recombinant human SIRPα; not shown: Fc tag
T3 sequence (P78324 31-370 limits assumed, change not shown, form in doubt): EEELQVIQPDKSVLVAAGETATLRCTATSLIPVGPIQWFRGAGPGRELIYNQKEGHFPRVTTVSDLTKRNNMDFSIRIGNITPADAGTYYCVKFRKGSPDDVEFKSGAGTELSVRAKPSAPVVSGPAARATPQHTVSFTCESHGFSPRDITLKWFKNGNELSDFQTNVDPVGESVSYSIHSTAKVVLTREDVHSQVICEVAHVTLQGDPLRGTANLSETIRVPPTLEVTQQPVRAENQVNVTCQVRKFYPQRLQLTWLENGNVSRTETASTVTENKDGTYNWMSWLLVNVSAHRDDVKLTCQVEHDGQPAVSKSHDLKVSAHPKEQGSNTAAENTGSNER
Description: The binding of anti-SIRP monoclonal antibodies (mAbs) of the present disclosure to SIRP alpha (SIRPα) was determined by solid phase ELISA using an Fc tagged human SIRP alpha. Binding by soluble anti-SIRP antibodies was measured in vitro.
Fc tagged human SIRPα (ACRO # SIG-H5251, genotype variant 1) is adsorbed to high-binding microtiter plates at a concentration of 1 μg/ml diluted in phosphate buffered saline (PBS) overnight at 4° C. The coating solution is removed, the wells are washed and then blocked with 75% casein in PBS containing 0.5% Tween 20 (PBST) for 60 minutes at room temperature while shaking. Blocking solution is removed, the wells are washed and incubated for 60 minutes at room temperature while shaking with either murine or human anti-SIRP mAbs diluted in PBST at a starting concentration of 30 μg/ml and reducing the concentration in 3-fold serial dilutions. Wells are washed three times with PBST and incubated for 60 minutes at room temperature while shaking with an HRP-labeled donkey anti-mouse or anti-human secondary antibody (Jackson ImmunoResearch Laboratories) diluted 1:10,000 in PBST. The wells are washed and then incubated with peroxidase substrate and the absorbance at 450 nm measured. The apparent affinities were calculated using a non-linear fit model (GraphPad Prism).

[6] = molecular target: T4, Fc tagged human SIRPγ (ACRO # SIG-H5253) (human, UniProt Q9P1W8 29-360); assay: ELISA, plate-coated Fc tagged human SIRPγ; apparent Kd
T4 construct: Bought protein; it includes the transmembrane and cytoplasmic part, which a soluble Fc fusion would not carry; also called Fc tagged human SIRP gamma; recombinant human SIRP gamma; not shown: Fc tag
T4 sequence (Q9P1W8 29-360 limits assumed): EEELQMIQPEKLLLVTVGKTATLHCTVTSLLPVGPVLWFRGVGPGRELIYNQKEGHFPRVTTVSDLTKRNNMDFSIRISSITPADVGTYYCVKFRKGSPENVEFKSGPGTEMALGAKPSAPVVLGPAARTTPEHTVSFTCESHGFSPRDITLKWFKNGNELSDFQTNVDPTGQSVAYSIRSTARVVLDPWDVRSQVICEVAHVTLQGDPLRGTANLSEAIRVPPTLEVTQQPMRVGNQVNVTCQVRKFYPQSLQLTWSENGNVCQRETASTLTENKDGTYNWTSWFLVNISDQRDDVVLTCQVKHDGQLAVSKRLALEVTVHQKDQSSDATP
Description: The binding of anti-SIRP antibodies of the present disclosure to SIRP gamma (SIRPγ) was determined by ELISA using an Fc tagged human SIRPγ. Binding by soluble anti-SIRP antibodies was measured in vitro.
Fc tagged human SIRPγ (ACRO # SIG-H5253) is adsorbed to high-binding microtiter plates at a concentration of 1 μg/ml in phosphate buffered saline (PBS) overnight at 4° C. The coating solution is removed, the wells are washed and then blocked with 75% casein in PBS containing 0.5% Tween 20 (PBST) for 60 minutes at room temperature while shaking. Blocking solution is removed, the wells are washed and incubated for 60 minutes at room temperature while shaking with anti-SIRP mAbs diluted in PBST at a starting concentration of 30 μg/ml and reducing the concentration in 3-fold serial dilutions. Wells are washed three times with PBST and incubated for 60 minutes at room temperature while shaking with an HRP labeled donkey anti-mouse or anti-human secondary antibody (Jackson ImmonResearch Laboratories) diluted 1:10,000 in PBST. The wells are washed and then incubated with peroxidase substrate and the absorbance at 450 nm determined. The apparent affinities were calculated using a non-linear fit model (GraphPad Prism).

[7] = molecular target: T4, Fc tagged human SIRPγ (ACRO # SIG-H5253); assay: blocking ELISA: mAb with human SIRPγ (ACRO # SIG-H5253) on plate-coated HIS tagged human CD47
Description: HIS tagged human CD47 (ACRO # CD7-H5227) is adsorbed to high-binding microtiter plates at a concentration of 2 μg/ml diluted in PBS overnight at 4° C. The coating solution is removed, the wells are washed and then blocked with 75% casein in PBS containing 0.5% Tween 20 (PBST) for 60 minutes at room temperature while shaking. Blocking solution is removed, the wells are washed and incubated for 60 minutes at room temperature while shaking with anti-SIRP mAbs diluted in PBST at a starting concentration of 30 μg/ml and reducing the concentration in 3 fold serial dilutions and 0.5 μg/ml of human SIRPγ (ACRO # SIG-H5253). Wells are washed three times with PBST and incubated for 60 minutes at room temperature while shaking with an HRP labeled donkey anti-mouse or anti-human secondary antibody (Jackson ImmunoResearch Laboratories) diluted 1:20,000 in PBST. The wells are washed and then incubated with peroxidase substrate and the absorbance at 450 nm determined. The IC₅₀ was calculated using a non-linear fit model (GraphPad Prism).

[8] = molecular target: HIS tagged human SIRPα (ACRO # SIG-H5225) (human) (UniProt P78324); assay: blocking ELISA: mAb on plate-coated HIS tagged human SIRPα, then Fc tagged human CD47
Sequence of HIS tagged human SIRPα (ACRO # SIG-H5225) (human) (P78324 31-370): as the sequence (P78324 31-370 limits assumed, change not shown, form in doubt) above

[9] = molecular target: T2, human SIRPα expressed on cells; assay: flow cytometry on human monocyte-derived dendritic cells; apparent Kd
Description: as §2

T1 sequence (Q9P1W8 29-387): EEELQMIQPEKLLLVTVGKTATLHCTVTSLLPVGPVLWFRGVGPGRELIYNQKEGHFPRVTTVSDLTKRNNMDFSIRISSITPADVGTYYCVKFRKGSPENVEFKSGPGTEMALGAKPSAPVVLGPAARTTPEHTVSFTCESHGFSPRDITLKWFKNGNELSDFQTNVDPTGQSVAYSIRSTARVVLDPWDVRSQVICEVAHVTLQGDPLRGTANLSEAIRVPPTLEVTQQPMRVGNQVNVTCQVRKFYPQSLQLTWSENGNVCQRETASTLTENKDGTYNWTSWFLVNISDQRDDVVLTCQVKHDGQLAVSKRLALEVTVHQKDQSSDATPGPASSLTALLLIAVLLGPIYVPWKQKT

Molecule	Kd [1] [nM]	Kd [2] [nM]	Kd [3] [nM]	Kd [4] [nM]	Kd [5] [nM]	Kd [6] [nM]	IC50 [7] [nM]	IC50 [8] [nM]	Kd [9] [nM]
SIRP9 (antibody, V domains shown, detected with anti-mouse secondary antibody in the cell assays) VH: EVQLQESGAELVRPGASVKLSCKALGYTFTDYEIHWVKETPVYGLEWIGDIHPGSGGTANNQKFKGKATLTADKSSNTAYMELSSLTSEDSAVYYCTRAVSGYYAMDYWGQGTSVTVSS VL: DIQMTQSSSSFSGSLGDRLTINCKASEDIYDRVAWYQQKPGNAPRLLISGTASLETGVLSRFSGSGSGKDYTLSINGLQAEDVATYYCQQYWTTPWTFGGGTKLEIK	1.41	0.263		0.0937	0.583	0.51			
OSE-18D5 (antibody, from another filing, V domains shown) VH: QVQLQQPGAELVRPGSSVKLSCKASGYTFTSYWVHWVKQRPIQGLEWIGNIDPSDSDTHYNQKFKDKASLTVDKSSSTAYMQLSSLTFEDSAVYYCVRGGTGTMAWFAYWGQGTLVTVSA VL: DVVMTQTPLSLPVSLGDQASISCRSSQSLVHSYGNTYLYWYLQKPGQSPKLLIYRVSNRFSGVPDRFSGSGSGTDFTLKISRVEAEDLGVYFCFQGTHVPYTFGSGTKLEIK			8.41	0.0373					0.0412
SIRP5 (antibody, V domains shown) VH: QVQLQQSAAELARPGASVKMSCKASGYTFTSYTMHWVKQRPGQGLEWIGYINPTIGYTEYNQKFKDKTTLTADKSSSTAYMQLSSLTSEDSAVYYCVRLVITSVLGRAMDYWGQGTSVTVSS VL: QIVLTQSPALMSASPGEKVTMTCSASSSVSYMYWFQQKPRSSPKPWIYLTSNLASGVPARFSGSGSGTSYSLTISSMEAEDAATYYCQQWSGNPFTFGSGTKLEIK					0.065	0.126	0.163		0.77
KWAR-23 (antibody, V domains shown) VH: EVQLQQSGAELVKPGASVKLSCTASGFNIKDYYIHWVQQRTEQGLEWIGRIDPEDGETKYAPKFQDKATITADTSSNTAYLHLSSLTSEDTAVYYCARWGAYWGQGTLVTVSS VL: QIVLTQSPAIMSASPGEKVTLTCSASSSVSSSYLYWYQQKPGSSPKLWIYSTSNLASGVPARFSGSGSGTSYSLTISSMEAEDAASYFCHQWSSYPRTFGAGTKLELK	0.00159	0.00622	0.00404						0.0234
SIRP2 (antibody, mouse IgG1, kappa, V domains shown, Hybridoma-derived mouse mAb) VH: EVKLVESGGGLVQPGGSLKLSCAASGFSFSGCTMSWIRQTPERRLEWVAYISNGGDITYYPDTVKGRFTISRDNAKNSLYLQMSSLKSEDTAMYYCARLDGYYYAMDFWGQGTSVTVSS VL: DILLTQSPAILSVSPGERVSFSCRASQSIGTSIHWYQQRTNGSPRLLIKYGSESISGIPSRFSGSGSGTDFTLSINSVESEDIADYYCQQSNTWPLTFGDGTKLELKR					0.182	0.734	3.5	3	

Second part, the molecule after the results:

Kd [1] [nM]	Kd [2] [nM]	Kd [3] [nM]	Kd [4] [nM]	Kd [5] [nM]	Kd [6] [nM]	IC50 [7] [nM]	IC50 [8] [nM]	Kd [9] [nM]	Molecule
1.26	0.95	0.75							LSB2.20 (antibody)
		0.0807		0.289	0.17	0.96	2.7	0.00347	SIRP3 (antibody, mouse IgG1, kappa, V domains shown, Hybridoma-derived mouse mAb) VH: EVQLQQSGPEVVKPGASVKMSCKASGYTFTSYVMHWVKQKPGQGLEWIGYINPYNDGPKYNEKFKGKATLTSDKSSSTAYMELSSLTSEDSAVYFCARWDYFNSASGFAFWGQGTLVTVSA VL: EIVLTQSPTTMAASPGEKITIICSASSIIGSDFLHWYQQRPGFSPKFLIYRTSILASGVPTRFTGSGSGTSYSLTIGTMEAEDVATYYCQQGSGLPLTFGSGTKLEMKR
		0.0839		0.197	0.099	0.63	1.1		SIRP7 (antibody, V domains shown) VH: EVQLQQSGPELVKPGASVKMSCRASGYTFSTYVMHWIKHRPGQGLEWIGYINPNNDGPNYNEKFKGKATLTSDISSSTAYMELSSLTSEDSAVYFCSRWDSYNSAAGFAYWGHGTLVTVSA VL: EIVLTQSPTTMAASPGEKITIICSASSSISSNFLHWYQQKPGFSPRFLIYRTSILASGVPTRFSGSGSGTSYSLTIDTMEAEDVATYYCQQGSGLPLTFGSGTKLEIK
			0.0207	0.161	0.274	0.44	0.71	0.05	SIRP4 (antibody, V domains shown, detected with anti-mouse secondary antibody in the cell assays) VH: EVQLQQSGPDLVKPGASVKISCKASGYSFTDYFLNWVKQSHGKSLEWIGRINPYNGDSFINQNFRDKATLTVDKSSTTAHMDLLSLTSEDSAIYYCGRGGYDGYFIAYFDYWGQGSLVTVSA VL: DIKLTQSQSSMYSSLGQRVTITCKASQDINSHLSWFQEKPGKSPKTLIYRANRLADGVPSRFSGSGSGQDYFLTISSLEYEDVGIYYCLQYDEFPYTFGGGTKLEIK
